{"source": "paper PMC12210189", "about": "“Crystal structure of the sucrose phosphorylase from Alteromonas mediterranea shows a loop transition in the active site” (Acta Crystallographica Section F: Structural Biology …, 2025)", "molecular_target": "the molecule itself", "test": "crystal structure; sitting drop, 295 K; protein 6.9 mg/ml in 25 mM HEPES, 50 mM NaCl, 0.5 mM DTT pH 7.0; reservoir 60%(v/v) Tacsimate pH 7.0; apo enzyme; 2.15 Å; two molecules (one dimer) in the asymmetric unit", "data": [{"protein": "sucrose phosphorylase from Alteromonas mediterranea (enzyme, sucrose phosphorylase (AmSP-WT), Alteromonas mediterranea, UniProt S5AE64_9ALTE; synthetic gene in pET-28b; also called AmSP; AmSP-WT; source: E. coli BL21(DE3), purified (Ni-NTA IMAC, size-exclusion chromatography)) MGSIRNGVQLITYADRLGDGNIESLTNLLDGPLKGLFKGVHILPFYYPYDGEDAGFDPIDHTTVDERLGDWNNIKKLGESVDIMADLIVNHMSGQSEAFTDVLKKGRESEYWPLFLTKEDVFSGNDQAEIDEQIAKVFRPRPTPFFSDYEVGIETDSTETVPFWTTFTSNQIDIDVESELGKEYLSSILQSFTESNVDLIRLDAAGYAIKRAGSNCFMLEETFEFIEALSKRARTMGMQCLVEIHSHYQTQIDIAARCDSVYDFALPPLVLHTLFTKDASALAHWLSISPRNCFTVLDTHDGIGIVDVGASGDKPGLISADAINALVEQIHVNSNGESKKATGAAANNVDLYQVNCTYYDALGKDDFAYLVARAIQFFSPGIPQVYYGGLLAAHNDMELLANTNVGRDINRPYLTTAMVEDAIQKPVVKGLMQLITLRNENKAFGGAFDVTYTDNTLVLSWSNDGDAASLTVDFAAMDATINTVSNGEESTLSIGALLA", "values": [{"measurement": "stoichiometry N", "value": 2}]}]}
